This note sets out measurements from patent publication US20240182585A1.

This experiment has as its target His-tagged human GFRAL (recombinant soluble GFRAL protein, R&D catalogue no. 9647-GR-050) (human) (UniProt Q6UXV0). The experiment can be described thus: SPR sandwich assay: row antibody captured via anti-Fc, GFRAL antigen added, then mAbQ injected as analyte (competitor: mAb Q).

His-tagged human GFRAL (recombinant soluble GFRAL protein, R&D catalogue no. 9647-GR-050) (human), sequence (Q6UXV0 19-351): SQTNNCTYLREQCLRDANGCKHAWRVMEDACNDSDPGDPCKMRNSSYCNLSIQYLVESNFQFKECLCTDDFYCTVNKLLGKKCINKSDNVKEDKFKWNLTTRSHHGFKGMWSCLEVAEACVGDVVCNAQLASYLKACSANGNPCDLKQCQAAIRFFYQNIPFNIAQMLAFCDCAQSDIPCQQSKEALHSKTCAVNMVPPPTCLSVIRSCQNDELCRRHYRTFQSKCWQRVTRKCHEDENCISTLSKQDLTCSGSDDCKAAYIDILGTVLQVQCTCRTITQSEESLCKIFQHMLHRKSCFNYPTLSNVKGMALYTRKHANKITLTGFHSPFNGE

In the case of IgG4PE (negative control) (antibody), the resonance units after mAbQ injection (resonance units) is 4.
